According to the supplement of paper PMC12636428:

System: Saccharomyces cerevisiae
Assay: transcriptional activation domain activity (GFP:mCherry ratio, weighted mean of sorted bins, harmonized to initial dataset scale) (arbitrary fluorescence ratio units); higher = stronger transcriptional activation
Conditions: beta-estradiol 1 µM; induction time 4 h
Method in brief: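 Values are activation activity, found as the read-weighted mean of bin median fluorescence, averaged across barcodes and then mapped linearly onto the initial dataset scale. Barcoded protein tiles fused to an estradiol-inducible synthetic transcription factor were integrated at the URA3 locus of GFP-reporter yeast diploids. Cells were induced for 4 hours at 30 °C with 1 uM beta-estradiol in SC, sorted into 8 bins by GFP:mCherry ratio, and barcode-sequenced, with tiles under 50 reads discarded.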

Sequence | transcriptional activation domain activity
EDSEPEPQPQKSQSRRRQSRGRGRRGGDSDNESVARSDVSASGGRRNRQRKQK | 22200
SVEDAADTTVSTDLKAADDATTEAAADDDAPRKKHKKSKSKKDKHRRAAADAE | 11600
ARYVVQYKNSLIGKHFKMLQQLGIFHLHDLCSPLLFDLWKATGELGALLWFPE | 66700
EPIQNEIAKLFHSGGDSVVDILFSQTSATEFVTVGGTGNVYHWDMEYSFSRND | 67800
EEEVEEKKAKKEKKSKEDKEDKKAKKDKKSKKDKSKDADEDVERTNGHSTPAA | 26100
GSIDITRLGLSFTIIGDLWRQVWWAMLGRDEFASLRKNVSYSRQSLQNLLVTM | 61800
PRHIQTIDEKLINDSNYLAFLKFDDLENEKFHSSASSISSPSYSSPSFSSYRN | 82100
LARVLTDFPMIFVMCTVFCIILYFMSGFAMEASKFWIFYLFVYVTTFCITALY | 46200
FVVLLYQSIFVLSLWLLPVFFKSHIKSLSYKSQVDTSIHVVSMFQCLLILYLI | 50200
SEEDEIKAGEEVPKKRRRRQALSCTECKRRKIKCDRQHPCGPCVRRTEADKCH | 52300
ARGGEKKRREPGRGKRRTGGEERGGRRKTRRANAGETGGERRPRGATPGRKPA | 38500
EKRHEKKKGSRDISGADDRSSGRSKDRRDHSSRGSSRKRHGSRRDKDRDLEDG | 25700
NSSEEEDRNRRERKRKREKEREKKKESRRHRSRSRRSKEVEDDDEKDRKRHRR | 14500
GRGRGGRGAGARGRGGTGEEGEGAGGKQERGQGGRGKERGGEGGGERGQGGRG | 28000
ILPRWIQVAITFVALLAVSCIVMVVGLIVKYWTLSVSFGHFLSRFAVLRYIVL | 58500
PSNSLEDSIQQTVKARRKLSARPVLRVRIPNNNFSSNSAIPSEPSSASSTSAN | 19300
QGIGLMYLVLVMLCLASLLITNLHFLTVYRSTLIHSYMSQLIVFSFLLPLSLV | 44700
LIFCVHMTVILFVILFCYLNRGFVPMTNGKYFYADFRISNTWGFITSLTLVLN | 38100
MEAKEGRPGNAFACERCRKHKVRCVPSDAPGICQRCQRARAPCIEHVARRRPA | 31400
SDKKAGNDKEEKKEEKKADGSEEKGKKVKDAEKEKEDKKSQQSEKKADDNGDK | 25000
MTPRAQDSSSDDKEDKKDTDRAAIRAAQNRKAQRLYRQRKEARVRELEATVAK | 78900

Sequence | transcriptional activation domain activity
LFALAMLLLFCFIGLLVSGLHFGHRVYSDDCLGQSWIMFSSILGFLYIGLHVQ | 32600
NASPAAVVATTATATPERAVSAAAGDNNASTLTKRGRGRPRKAAKHTQAQTQA | 36500
FPFFLSSLFFFLPFFSFFPFFLSSLFLLLFFSFSSSSYQTFSLREQFFHLFFT | 43500
ANEYNVVCSILVFWSDTVPLWGFFLIFWFFFLGFQLLGVESFGEAEFWLALLK | 62200
MLLTLQSYFFFLLMFLVNSVSLLSFFSIFVFIIFLRYGCRMLWWHLHCIYPIF | 38000
MLWVCTSRKGESRVVCLGLAHLSIWIRGLLVLERILVCSMSLSCWRVGILKCT | 53800
TPQCPPTPTPPPAPASKSRPPPHTPTSTRARNNPPPPSCACGGCTRATSGSRR | 33800
MLMAWVIHAKCSAVPQCPPRPAVRSYIGRITLSLIIRARCILEMIVFPTFICW | 55600
CASPIFRLKYLYKIPSGIAAMAHIFSVVNHFTFFELMWLMERWNFRRALLGLM | 62900
SRAKVCGWADVFMVIAMHCLLGWSVTMTLYALRGGTRHIWDLEPLGVDNLIKA | 35200
IQAAGLWQCRYSSYGIECVRYVFFFTMFLFLLRSGWYLSSAFFLGLLWHQLSF | 39600
LFFHILFPFFFFFQFLFSLFFFSFFFHSFFFLYFLFFPGGFFFQFCCFFFPSF | 44800
VKVVRGTGKLIFLSRCIEPWLPKNNAYLLSLPWLDWKSLVLTVLYGIKGYCFL | 62600
NTLSRTKAYMTFILAFVAITSIVRFTGSTLYLIARFLLGKRAWITYLIYVYLY | 52700
PDIKKRPRKKSRRASAEGSEIGTESGGSDDGRQESAQRRKVERKERAGSSKEV | 47100
ASFLVLRDIRLLDCFSVLASCGYVSLFPLIYTCDEWLIKVVYTLLWYIIYYFS | 84300
HGRARPSRASASVPARKKTKSKVKKRASAAVVGSDDEDGEERPKKRRGGGGGA | 33100
PARGNKDVFFIMFHPSEEFLFNILSLWLRACNPNCRIFHSHEAGSWKQYQKET | 45000
MEASFYFSSSSFCSAFLFFYFFILFFWGGFPLFPSQLFLSLSLLFIHTLSLFP | 26700
SKAGLILVIRRQGNEIICGAYRNLGFKMLWKLYVKSLFDVMGQWHEVYATSKP | 64000
RIVGESASTHAVCVSLPRDVYQASDGEEDLMGSVPQVLPALVCSCTRASSIVH | 68500

Sequence | transcriptional activation domain activity
RASEASVGTEGATDIPGDEKKKKRAPRKKPGEEENEAGRGKGRKRKGTNESSA | 36200
YGADDFFFPPEGCDNNMLYPQTATSWNVLPPQAMQPAPTYVGRPYTPNYRSTP | 71900
LILILLIWRYCWYDGVIVNKIRAIGNDFCIWNPRMGEPLWTEYSHLVAKCLLF | 62700
IHVESRLPEMRATLEPKRYVHVARFFSHLIIYFRLLHRPLPASTCNSMLRHYV | 47400
FLKIYLLNPLHMTRFTDLLHQGFILNRVFQPYESHLQYLLQWMCDYNLYGCAY | 39200
MFKSVFCLFSVLSFLLFHACFIYHSFFSFLFLLMMKLLLWLCATFATKWLFFC | 69500
KQYCVRPNSGRIEPGKDVEVQILLQAMKEDPPPDAKCRDKFLVQSVAVSADKE | 47000
ARVLGKKNTLEGLASTIRGTVRFVRETCYAVIYCMTRLDMQFYGFLELPGPLA | 39600
PRFLMYCKLGICQLVILRLFTSTFTIVLEMMGLFCPESMSWRFGHFWAVLFNF | 63600
SQVCLDSFGLLFAVVAYPCTSLLLLIFILASFLTFQAIFTLFPLFRLLAFFCL | 41700
GKKRRRSSSSSSSSSGSSSSGSSSSSGSDSESDSSSDSSSSSSNSSRSSGSRS | 24900
QARQSKEPAMSQKDLATKVNEKQSVINDYESGRAVPNQQVLSKLERALGVKLR | 36800
MSSAASSTGSPRPKRRRRRPARSCEQCRRRKIRCDMGQPCNGCVRARVSMECS | 38300
MDRQQNGSKRTESVRQPVSCEPCRRRKIKCSRSHPPCDTCRRRRCPDSCVYKS | 43700
AVRLCRVTIKDITDPLPEGLRLSILLMSMDSLRLGRLYQVLDYMTIRSSLGKV | 44600
RGERGQGAGGRGEGEGRGAGGERERRGGEREEGRGRERDERQGGKRERERGQG | 21800
RQLAWECLHHCSVQLRPSGATIRDSLRAAAHYVKHLAIQHKLVLVALQPFFAY | 43100
LFRDDEFWGIFASDVGLLVMMGWYGFKTLLWTYILPLMWVNHWIVMITYLHHT | 55100
AVMFGQVCVILVAFCFTNQITFVGIRHGLWRSRINTIRLYIFLLRCWQILCGL | 60900
